Data on 1 molecule can be found in US20050059087A1, “Antibodies directed to the deletion mutants of epidermal growth factor receptor and uses thereof” (priority 2003, published 2005).

One experiment has as its target T1, EGFRvIII-peptide-OVA (Homo sapiens, UniProt P00533, DELINS30-297G).
T1 construct: purchased R&D Systems (custom synthesis); host or cells: synthetic peptide
The experiment in a line: B-cell culture supernatant ELISA on EGFRvIII-peptide-OVA. The class given is binding. To be noted: Table 3.8. How it is done: B-cells from the above-discussed animals were harvested and cultured. Those secreting EGFRvIII-peptide specific antibodies were isolated as described in Babcook et al., Proc. Natl. Acad. Sci. USA, 93:7843-7848 (1996). ELISA was used to identify primary EGFRvIII-peptide-OVA-specific wells. About 5 million B-cells were cultured from XenoMouse animals in 245 96 well plates at 500 or 150 or 50 cells/well, and were screened on EGFRvIII-peptide-OVA to identify the antigen-specific wells.

For experiment [1], the target named is T2, NR6 Wt cells (NR6 cells expressing EGF receptor) (Homo sapiens, UniProt P00533).
T2 construct: expressed in transfected cells; host or cells: NR6 murine fibroblasts (NR6 Wt)
Nature of the experiment: Native cell binding assay by FMAT, NR6 Wt cells. The class given is cell-based. To be noted: total fluorescent intensity.

In experiment [2] the target is T3, EGFRvIII receptor on NR6 M cells (Homo sapiens, UniProt P00533, DELINS30-297G).
T3 construct: expressed in transfected cells; host or cells: NR6 murine fibroblasts (NR6 M)
The experiment in a line: Internalization assay of B-cell culture supernatants (FMAT, glutathione). The class given is cell-based. The procedure: The top 60 native binding B cell culture supernatants were further assayed for their ability to internalize the receptor. NR6 M cells were seeded at 8000 cells/well into 96 well FMAT plates and incubated overnight. Media was removed and 10-15 μl B-Cell culture supernatant in a total volume of 30 μl media, in duplicate was added. Next, 15 μl of secondary antibody (SS Alexa 647 anti-human IgG Fab at 1.5 μg/ml final concentration) was added and the mixture was incubated on ice for 1 hr. An irrelevant B-Cell Culture supernatant was used to see the effect of the culture media. Human anti-EGFRvIII mAb 13.2.1 was used as a positive control starting at 1 μg/ml (final concentration) and negative control was PK 16.3.1 (human anti-KLH IgG2 antibody) at the same concentration. After incubation, the cells were washed with cold PBS, 50 μl media was added to all of the wells, one of the duplicates were incubated at 37° C. for 30 mins while the other duplicate remained on ice. After the incubations media was removed, 100 ul of cold 50 mM glutathione was added to the set incubated at 37° C. and 100 μl of cold media added to the other set, both sets were then left on ice for 1 hr. The cells were then washed with 100 μl cold PBS and then fixed with 1% paraformaldehyde and read in FMAT. The results were expressed as % intermalized, calculated as total fluorescence in the presence of glutathione/total fluorescence in the absence of glutathione X 100.

Another experiment addresses T4, OVA (Gallus gallus, UniProt P01012).
T4 sequence (P01012 1-386): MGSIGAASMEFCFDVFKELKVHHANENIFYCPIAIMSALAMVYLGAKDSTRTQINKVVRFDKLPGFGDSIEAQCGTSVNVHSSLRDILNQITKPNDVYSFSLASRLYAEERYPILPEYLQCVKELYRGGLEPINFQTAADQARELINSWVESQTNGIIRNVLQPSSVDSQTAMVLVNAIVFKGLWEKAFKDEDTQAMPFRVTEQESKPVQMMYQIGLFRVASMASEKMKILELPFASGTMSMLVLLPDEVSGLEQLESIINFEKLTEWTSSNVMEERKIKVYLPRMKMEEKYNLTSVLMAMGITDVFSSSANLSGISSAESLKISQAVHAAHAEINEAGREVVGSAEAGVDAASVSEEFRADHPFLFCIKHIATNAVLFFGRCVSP
Nature of the experiment: B-cell culture supernatant control ELISA on OVA. The class given is binding. To be noted: Table 3.8. From the text:
244 of EGFRvIII-peptide-OVA-Elisa positive wells of OD>0.5 were screened again on EGFRvIII-peptide-OVA and on OVA to confirm that they were EGFRvIII-peptide specific.
In general terms: In an ELISA, binding on a coated surface is turned into a signal by an enzyme label.

Experiment [3] deals with T5, native form of EGFRvIII stably expressed on NR6 cells (NR6 M cells) (Homo sapiens, UniProt P00533, DELINS30-297G).
T5 construct: expressed in transfected cells; host or cells: NR6 murine fibroblasts (NR6 M)
The experiment in a line: Native cell binding assay by FMAT, NR6 M cells. The class given is cell-based. To be noted: total fluorescent intensity.

B1: 129A7: B-cell culture supernatant well (antibody, V domains shown)
VH: QVQLVESGGGVVQPGRSLRLSCAASGFTLSSYGMHWVRQAPGKGLEWVAVMSYDGSKEDYADSVKGRFTISRDNSENTLYLQMNSLRAEDTAVYYCVSEGYCSSRSCYKYYYYGMDVWGQGTTVTVSS
VL: DIVMTQSPLSLPVTPGEPASISCRSSQSLLYRNGNNYLDWYLQKPGQSPQLLIYLGSNRASGVPDRFSGSGSGTDFTLNISRVEAEDVGHYYCMQALQTPRTFGQGTKVEIK
Regarding B1, in the experiment with EGFRvIII-peptide-OVA, the “1′ VIII-pep-OVA OD” value is 2.1501 and the “2′ VIII-pep-OVA OD” value is 2.8208. The “FMAT native binding to NR6 Wt cells” value in experiment [1] stood at 0. Besides, the “With glutathione FL1 × count” value in experiment [2] (37° C. for 30 mins, then 50 mM glutathione) was 8708. For the same molecule, the “% internalized, (glut+/glut−) × 100” value in experiment [2] (NR6 M cells, 37° C. 30 mins) was determined as 31.5%. For the same molecule, the “No glutathione FL1 × count” value in experiment [2] (set kept on ice, no glutathione) worked out at 27648. Besides, the “OVA OD” value with OVA is reported as 0.1515. Besides, the “FMAT native binding to NR6 M cells” value in experiment [3] is given as 84024.
